Here are results for ten molecules from patent publication US7537764.

The term Kd denotes the free concentration of one partner at which half of the binding sites on the other are occupied at equilibrium, for simple one-to-one binding. A lower Kd goes with tighter binding.

Changes are numbered by the printed parent chain. Read-outs that look alike come from different tables or passages of the source.

Experiment [1] has as its target West Nile virus strain USA99b (strain 385-99), whole virus (West Nile virus strain 385-99 (USA99b)). Kind of experiment: SPR as in Example 9, WNV captured via immobilized CR4283, average of duplicates.
The target is the same in experiment [2]. Put plainly: phage ELISA on coated whole inactivated WNV. (In an ELISA, binding on a coated surface is turned into a signal by an enzyme label.)
The target is the same in experiment [3]. Put plainly: ELISA on irradiated WNV; IgG1 at 0.078 µg/ml.
For experiment [4] the target is unchanged. Kind of experiment: ELISA on irradiated WNV; IgG1 at 0.630 µg/ml.
The target is the same in experiment [5]. Put plainly: ELISA on irradiated WNV; IgG1 at 0.310 µg/ml.
Experiment [6] shares this target. Kind of experiment: ELISA on irradiated WNV; IgG1 at 2.500 µg/ml.
Experiment [7] has the same target. Kind of experiment: ELISA on irradiated WNV; IgG1 at 10.000 µg/ml.
For experiment [8] the target is unchanged. Kind of experiment: ELISA on irradiated WNV; IgG1 at 0.160 µg/ml.
The target is the same in experiment [9]. Put plainly: ELISA on irradiated WNV; IgG1 at 0.000 µg/ml (no antibody).
The target is the same in experiment [10]. Put plainly: ELISA on irradiated WNV; IgG1 at 5.000 µg/ml.
Experiment [11] shares this target. Put plainly: cell-based or functional assay.
For experiment [12] the target is unchanged. Put plainly: ELISA on irradiated WNV; IgG1 at 0.039 µg/ml.
The target is the same in experiment [13]. Kind of experiment: ELISA on irradiated WNV; IgG1 at 1.250 µg/ml.
Experiment [14] shares this target. Put plainly: ELISA on irradiated WNV; IgG1 supernatant diluted 1:125.
Experiment [15] has the same target. Kind of experiment: ELISA on irradiated WNV; IgG1 supernatant diluted 1:25.
Experiment [16] shares this target. Kind of experiment: ELISA on irradiated WNV; IgG1 supernatant diluted 1:5.
Experiment [17] has the same target. Put plainly: ELISA on irradiated WNV; IgG1 at 20.000 µg/ml.
For experiment [18] the target is unchanged.

B1: CR5074 (antibody, V domains shown)
VH: QVTLKESGPTLVKPTQTLTLTCTFSGFSLSTSGVGVGWIRQPPGKALEWLAVIYWNDDKLYRPSLKSRLTITKDTSKNQVVLTMTKMDPVDTATYYCAHRHRYYDISGYYRLFSDAFDIWGQGTMVTVSS
VL: QSVLTQPPSVSGAPGQRVTISCTGSSSNIGTGYDVHWYQQLPGTAPKLLIYADTNRPSGVPDRFSGSKSGTSASLAITGVQAEDEADYYCQSYDTSLTGWVFGGGTKVTVLG
In experiment [1], B1 had a dissociation constant (Kd) of 3.9 nM.

B2: CR5088 (antibody, V domains shown)
VH: B1 VH
VL: QSVVTQPPSVSGAPGQRITISCTGSSSNIGAGYDVHWYQQLPGTAPKFLIYGNSNRPSGVPDRFSGSKSGTSASLAITGLQAEDEADYYCQSYDSSLSGWVFGGGTKLTVLG
Take B2: the Kd in experiment [1] was determined as 1.7 nM.

B3: CR5080 (antibody, V domains shown)
VH: B1 VH
VL: B2 VL with V4L, I18V, F48L, V101A
B3: in [1], the Kd came to 2.7 nM.

B4: CR5085 (antibody, V domains shown)
VH: B1 VH
VL: B2 VL with I18V, F48L, A86T, S98N
B4: in experiment [1], the dissociation constant (Kd) is 3.7 nM. The Kd values of the last two molecules are within 1.5-fold of each other.

B5: SC04-374 (scFv)
scFv: QVTLKESGPTLVKPTQTLTLTCTFSGFSLSTSGVGVGWIRQPPGKALEWLAVIYWNDDKLYRPSLKSRLTITKDTSKNQVVLTMTKMDPVDTATYYCAHRHRYYDISGYYRLFSDAFDIWGQGTMVTVSSGTGGSGGTGSGTGGSTQSVVTQPPSVSGAPGQRVTISCTGSSSNIGAGYDVHWYQQLPGTAPKLLIYGNSNRPSGVPDRFSGSKSGTSASLAITGLQAEDEADYYCQSYDSSLSGSVFGGGTKLTVLG
On to B5, for which, in [2], the OD 492 nm was found to be 0.975 OD.

B6: CR4289 (antibody, V domains shown)
VH: EVQLVQSGAEVKKPGESLRISCKGSGYSFTSNWITWVRQMPGKGLEWMGRIDPSDSYTNYSPSFQGHVTISADKSISTAYLQWSSLKASDTAMYYCARDVVGVGASDYYYYMDVWGQGTTVTVSS
VL: EIVLTQSPGTLSLSPGETATLSCRTSQSVSSSYLGWYQQKPGQAPRLLIYGASIRATGIPARFSGSGSGTEFTLTIDSLQSEDFAVYYCQQYNNWPPITFGQGTRLEIKR
Turning to B6, the OD 492 nm is 0.209 OD in [3]; 0.351 OD in experiment [4]; 0.313 OD in experiment [5]; 0.492 OD in [6]; 0.752 OD in experiment [7]; 0.25 OD in [8]. The OD 492 nm in experiment [9] turned out to be 0.003 OD; in experiment [10] it was 0.586 OD; in [12], 0.147 OD; in experiment [13], 0.415 OD. In experiment [11], this molecule yielded a potency in the 66% neutralizing antibody titer assay of 10.1 µg/mL.

B7: CR4299 (antibody, V domains shown)
VH: QVQLVESGGGVVQPGRSLRLSCAASGFTFSGYAMHWVRQAPGKGLDWVAVISYDGSEKYSADSVKGRFTISRDNSKNTLYLQMNSLRAEDTAVYYCAKESGGPIWYKYYGVDVWGQGTTVTVSS
VL: SYVLTQPPSLSAAPRQRVTISCSGSSSNIGNYGVNWYQQLPGKAPKLLIYYDDLLPSGVSDRFSGSKSGTSASLAISGLQSEDEGDYYCAAWDDTLSAWVFGGGTKLTVLG
Turning to B7, the OD 492 nm in [14] was 0.929 OD; in experiment [15], 1.34 OD; in [16], 1.48 OD; in experiment [3], 0.446 OD; in [4] it was 0.891 OD; in experiment [17] it was 1.19 OD. Further, the OD 492 nm came to 0.756 OD in experiment [5]; 1.03 OD in experiment [6]; 1.12 OD in experiment [7]; 0.61 OD in [8]; 0.003 OD in experiment [9]; 1.07 OD in [10]. In addition, the figures for the OD 492 nm in experiment [12] and in experiment [13] were 0.227 OD and 0.977 OD, respectively. In experiment [11], this molecule came in with a potency in the 66% neutralizing antibody titer assay of 3 µg/mL.

B8: CR4353 (antibody, V domains shown)
VH: QVQLVESGGGVVQPGRSLRLSCAASGFTFSNYAMHWVRQAPGKGLEWVAVISYDGGNKYYADSVKGRFTMSRDNSKNTLYLQMNSLRAEDTAVYYCARDFWSGYSMVDSYYYYMDVWGQGTTVTVSS
VL: ETTLTQSPGTLSLSPGERATLSCRASQSVSNTFLAWYQQKPGQAPRLLIYGASSRATGIPDRFSGSGSGTDFTLTISRLEPEDFAAYYCQQYGSSLTFGPGTKVDIKR
Take B8: the OD 492 nm in experiment [3] is 0.734 OD; in [4], 1.33 OD; in experiment [5], 1.17 OD; in experiment [6], 1.43 OD; in experiment [7], 1.57 OD; in [8], 1.07 OD. Further, the OD 492 nm stood at 0.003 OD in experiment [9], 1.55 OD in experiment [10], 0.595 OD in experiment [12] and 1.42 OD in experiment [13]. The molecule also had a dissociation constant (Kd) in [18] of 6.5 nM.

B9: SC04-353 (scFv)
scFv: EVQLVQSGGGVVQPGRSLRLSCAASGFTFSNYAMHWVRQAPGKGLEWVAVISYDGGNKYYADSVKGRFTMSRDNSKNTLYLQMNSLRAEDTAVYYCARDFWSGYSMVDSYYYYMDVWGKGTTVTVSSGTGGSGGTGSGTGGSTETTLTQSPGTLSLSPGERATLSCRASQSVSNTFLAWYQQKPGQAPRLLIYGASSRATGIPDRFSGSGSGTDFTLTISRLEPEDFAAYYCQQYGSSLTFGPGTKVDIKR
With B9, in [2], the OD 492 nm was found to be 1 OD.

B10: SC04-361 (scFv)
scFv: EVQLVQSGAEVKKPGESLKISCKASGFSFSTYWIGWVRQMPGKGLEWMGIIYPADSDTRYSPSFQGQVTISADKSISTAYLQWSSLKASDTAMYYCARLRGPYYDFWNGYRETHDAFNVWGQGTMVTVSSGTGGSGGTGSGTGGSTDVVMTQSPDSLAVSLGERATINCKSSQNILDNSDNKNFLAWYQQKPGQPPKLLIYWASARESGVPDRFSGSGSGTDFTLTISSLQAEDVALYYCQQYYNTPITFGQGTRLEIKR
With B10, in experiment [2], the OD 492 nm turned out to be 0.66 OD.
